Data on 4 proteins can be found in article PMC4151697 (Biochemistry, 2014).

Data set [1] deals with the molecule itself. As to the kind of experiment: SEC.
Data set [2] concerns the molecule itself. As to the kind of experiment: light scattering.
Data set [3] concerns the molecule itself. As to the kind of experiment: SEC. The source holds these as a separate data set.

Positions count from the first letter of the chain named. Numbers in names are those of the source.

B1: Cp149-C61S (Cp149 with C61 mutated to serine) (domain or fragment, hepatitis B virus, UniProt P03147 1-149, looked up)
chain: MDIDPYKEFGATVELLSFLPSDFFPSVRDLLDTAAALYRDALESPEHCSPHHTALRQAILSWGDLMTLATWVGTNLEDPASRDLVVSYVNTNVGLKFRQLLWFHISCLTFGRETVLEYLVSFGVWIRTPPAYRPPNAPILSTLPETTVV
B1 registered a pseudocritical concentration in data set [1] of 5.9 µM.

B2: Cp149red (reduced HBV core protein assembly domain, amino acids 1–149, homodimer) (domain or fragment, hepatitis B virus, UniProt P03147 1-149, looked up)
chain: B1 chain with S61C
B2 registered a pseudocritical concentration in data set [1] of 4.7 µM.

B3: Cp149re-red (partially re-reduced Cp149ox) (domain or fragment, hepatitis B virus, UniProt P03147 1-149, looked up)
chain: B1 chain with S61C
modifications: intradimer C61–C61 disulfide in most dimers (only ∼20% of Cp149ox could be reduced)
Turning to B3, the pseudocritical concentration in data set [1] was found to be 6.5 µM.

B4: Cp149ox (fully oxidized Cp149 dimer with the intradimer C61–C61 disulfide) (domain or fragment, hepatitis B virus, UniProt P03147 1-149, looked up)
chain: B1 chain with S61C
modifications: intradimer C61–C61 disulfide (fully oxidized)
For B4, in data set [2], the “amount of capsid relative to Cp149red” value is roughly 40% and the “fold slower elongation rate constant than Cp149red” value worked out at 1.7 fold. Further, the Kd in data set [3] came out at 4 ± 0.2 µM.
